Patent US20190062389A1 (CYTLIMIC, published 2019)

Columns and labels:
[1] = target: HLA-A*02:06 molecule (product of HLA-A*02:06 gene) on RA2.6 cells (human); experiment: flow cytometry, RA2.6 cells, peptide dilution series, BB7.2 staining
Procedure: First, the RA2.6 cells were cultured overnight at 26° C. to accumulate the HLA-A*02:06 molecules unbound to the peptide on the cell surface. Any of peptide dilution series was added thereto for binding at 26° C. for 60 minutes.
Subsequently, the mixture was cultured at 35° C. for 4 hours, resulting in the denaturation of the empty HLA-A*02:06 molecule unbound to the peptide and the loss of its steric structure. A fluorescent labeled monoclonal antibody, BB7.2, specifically recognizing a peptide-bound HLA-A*02:06 molecule, was added thereto, which was then incubated on ice for 20 minutes to stain the cells.
(§1) Thereafter, the amount of fluorescence per cell was measured using a flow cytometer, and the dissociation constant, Kd value, was calculated using a method as published in a paper by the present inventor (Udaka et al., Immunogenetics, 51, 816-828, 2000).

[2] = target: T1, HLA-A*02:01 molecule (product of HLA-A*02:01 gene) on T2 cells (human); experiment: flow cytometry, T2 cells with added b2m, peptide dilution series, BB7.2 staining
T1 construct: MHC class I molecule on TAP-deficient T2 cells; stabilisation read with antibody BB7.2
Procedure: T2 cells and purified β2m were added to stepwise dilution series of a peptide whose binding capacity was to be measured, which was then incubated at 37° C. for 4 hours.
as §1

[3] = target: T2, HLA-A*24:02 molecule (product of HLA-A*24:02 gene) on C1R-A24 cells (human); experiment: flow cytometry, acid-stripped C1R-A24 cells with added b2m, peptide dilution series, 17A12 staining
T2 construct: MHC class I molecule emptied of peptide; the peptide under test reassembles with heavy chain and added b2m; assembly stained with antibody 17A12
Procedure: First, C1R-A24 cells were exposed to acidic conditions of pH 3.3 for 30 seconds to dissociate and remove endogenous peptides which were originally bound to the HLA-A*24:02 molecule and a light chain, β2m, which was commonly associated with HLA class I molecules. After neutralization, purified β2m was added to the C1R-A24 cells, which was then added to peptide dilution series. The mixtures were each then incubated on ice for 4 hours. The 3-molecule assembly (MHC-pep) consisting of the HLA-A*24:02 molecule, the peptide, and β2 m which had been reasociated during the incubation was stained with a fluorescent labeled monoclonal antibody, 17A12, recognizing the assembly.
Subsequently, the number of MHC-pep's per C1R-A24 cell (which is proportional to the fluorescent intensity of the above fluorescent antibody) was quantitatively measured using a fluorescent cell analyzer, FACScan (Becton, Dickinson and Company). The binding dissociation constant, Kd value, between the HLA-A*24:02 molecule and the peptide was calculated from the average fluorescent intensity per cell using a method as published in a paper (Udaka et al., Immunogenetics, 51, 816-828, 2000) by the present inventor.

Binder | Binding Experiment Data (log Kd) [1] | Binding Experiment Data (log Kd) [2] | Binding Experiment Data (log Kd) [3]
ARLNMEQLL (Synthetic peptide; only the start position in GPC3 is printed) [GPC3-derived peptide ARLNMEQLL (SEQ ID NO: 11)] | -2.76 log Kd (concentration unit not printed) | -3.84 log Kd (concentration unit not printed) | -5.2 log Kd (concentration unit not printed)
LFDSLFPVI (Synthetic peptide; only the start position in GPC3 is printed) [GPC3-derived peptide LFDSLFPVI (SEQ ID NO: 2)] |  | -5.07 log Kd (concentration unit not printed) | -7.43 log Kd (concentration unit not printed)
LLQSASMEL (Synthetic peptide; only the start position in GPC3 is printed) [GPC3-derived peptide LLQSASMEL (SEQ ID NO: 8)] | -5.88 log Kd (concentration unit not printed) | -6.14 log Kd (concentration unit not printed) | -5.49 log Kd (concentration unit not printed)
SLQVTRIFL (Synthetic peptide; only the start position in GPC3 is printed) [GPC3-derived peptide SLQVTRIFL (SEQ ID NO: 4)] | -5.21 log Kd (concentration unit not printed) | -6.21 log Kd (concentration unit not printed) | -5.34 log Kd (concentration unit not printed)
GMIKVKNQL (Synthetic peptide; only the start position in GPC3 is printed) [GPC3-derived peptide GMIKVKNQL (SEQ ID NO: 10)] | -3.36 log Kd (concentration unit not printed) | -4.76 log Kd (concentration unit not printed) | -6.9 log Kd (concentration unit not printed)
SALDINECL (Synthetic peptide; only the start position in GPC3 is printed) [GPC3-derived peptide SALDINECL (SEQ ID NO: 3)] | -6.32 log Kd (concentration unit not printed) |  | 
GYICSHSPV (Synthetic peptide; only the start position in GPC3 is printed) [GPC3-derived peptide GYICSHSPV (SEQ ID NO: 6)] |  |  | -6.55 log Kd (concentration unit not printed)
KLTTTIGKL (Synthetic peptide; only the start position in GPC3 is printed) [GPC3-derived peptide KLTTTIGKL (SEQ ID NO: 9)] | -5.03 log Kd (concentration unit not printed) | -4.97 log Kd (concentration unit not printed) | -5.21 log Kd (concentration unit not printed)
ALNLGIEVI (Synthetic peptide; only the start position in GPC3 is printed) [GPC3-derived peptide ALNLGIEVI (SEQ ID NO: 7)] | -4.16 log Kd (concentration unit not printed) | -5.92 log Kd (concentration unit not printed) | -3.96 log Kd (concentration unit not printed)
MVNELFDSL (Synthesized by Fmoc solid-phase method, purity 95% or more; the end is derived from the length of 9) [GPC3-derived peptide MVNELFDSL (SEQ ID NO: 1)] | -6.14 log Kd (concentration unit not printed) | -5.31 log Kd (concentration unit not printed) | -4.7 log Kd (concentration unit not printed)
